According to the nanobody polyreactivity screen of Harvey et al. (2022):

Assay: yeast display, Sf9 membrane polyspecificity reagent, FACS + sequencing; frameworks hold sequencing errors
Summary of the method: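 After 36–48 hours of galactose induction, yeast (Saccharomyces cerevisiae BJ5465) displaying a synthetic nanobody library were stained at 4 °C for 1 hour with 10% biotinylated, detergent-solubilized Sf9 membrane reagent. Streptavidin microbeads enriched the stained cells before FACS sorting into low and high (top ~1%) gates on anti-HA and streptavidin fluorescence. Each clone's polyreactivity label reflects its gate of origin.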

Row | Sequence | polyreactivity (PSR sort gate)
1 | QVHLVESGGVLVQAGGSLRLSCAASGFILYFNAMGWYIQAPGKERELVAVNTFRSGSTYYADSVKGRFTISRDNAKNTVNLQMNSLKPEDTAVYYCNAQSVLLSLRVELREPHEYWGHGTQVTVSS | low polyreactivity
2 | QVHLVESGGVLVQAGGSLRLSCAASGIALLYYTMGWYRQAPGKERELVAAINSGGRTYYADSVKGRYTISRDNAKNTGYLQMNSLKPDDTAVYFCAAHGGADHMDYWGQGTQVTVSS | high polyreactivity
3 | QVHLVESGRGLVQAGGSLRLSCAASGSTFKIYAMGWYRPAPAKERELVAAITRGGSTNYADSVKGRFTISRDTAKKTVYLQMNSLKPEDTAVYSFAASYWYRRYGTYSYDYWGHGTQVTVSS | high polyreactivity
4 | QVHLVESGRGLVQAGGSLRLSCASSGSIFSRYAMGRYREAPGKVSELVAAISRRGGRTYYADSVKGRFTISRDYAKNTVYLQMKSLKPEVTAVYYCNDRRYNVPHPNRYDYWGQGTQVTVSS | high polyreactivity
5 | QVHLVESGRGLVQSGGSLRLSCADSGSTFATNAMGWYRQAPGKERELVAAITSRGGTYYADSVKRRFTISRDKAKNTVYLQMNSLKPEDTAVYYCNAVSRYAFDYCGQGTQVTVSS | high polyreactivity
6 | QVHLVESGVGLFQAGGSLRLSCAASGIIFRYYTMEWYIQAPGKEREVVAVITRGCSTYYADSVMGRFTISRDNAKYSVYLQMNSLKPVDTAVYFCAALRYKLPLGYWGQGTQVTVSS | high polyreactivity
7 | QVHLVESRGGLDQAGGSLRLSCAASGRTVYQYAMGRNRQAPGKERELVAAITRSGSRTYYADTVKGRFTISRDNAKNTVYLQMNSLKPEDTAVYYCAADGHGGFPIDEYYYWGQGTQVTVSS | high polyreactivity
8 | QVHLVESVGGLVQAGGILRLSCAASGFTFYSYAMGCYRQAPGNERELVAAITRSGGNTYYADSVKGRFTISRDNAKNTVYLQMNSLKPEDTAVYYCDATGKRISPSHYYCGQGTQVTVSS | high polyreactivity
9 | QVHLVESVGGLVQAGGSLRLSCAASGGIFCVYAMGWYRQAPGKERELVAAISNSDTSTSYADSVKGRFTISRDNAKNTVYLQMNCLKPEVTAVYYCNADSPSLSGDYWGQGTQVTVSS | low polyreactivity
10 | QVHLVESVGGLVQAGGSLRLSCAASGRIFYRNAMGCYRQAPGKERELVAAINTGGDGTYYADSVKGRFTISRDNAKNTVYLQMNSLKPEDTAVYYCAADRSSFYWSHGTVYGYDYWGQGTQVTVSS | low polyreactivity
11 | QVHLVETGGALVQAGGSLSISCAASGSIYHGYTMGWYRQAPGKERELVAAINSGDGSTYADSVKGRFTISRDNAKNTVYLQMNSLKQEDTAVYYCAALYAVYWPWYVREYDYWGHGTQVTVSS | low polyreactivity
12 | QVHLVETGGGLLQAGGSLRLSFAASGFTFWRYAMGWSRQAPGKESELVAAISRTGGRTYYADSLKGRFTISRDHAKNTVYLQMNSLNPEDTAVYYCNAPRGYSSTRNGYWGQGTQVTVSS | high polyreactivity
13 | QVHLVQSGGGIVQAGGSLRLSCPASGSIFGYYAMGWYRQPRGKERELVAAITGGGRTYYADSVKGRFTISRDNAKNTVYLQMNSLKPEDTGVYYCTARSTSYRSYWRDYWGQGTHVTVSS | high polyreactivity
14 | QVHRVESGGGLVQAGGSLRLSCAASGSIFSYYDLGWYRQAPGNERELVAAISWDGGDRTYADSVKGRFTISRDNAKNNVYLQMNSLKPEDSAVYYCAKNTGSYRRVNLDYWGQGTQVTVSS | low polyreactivity
15 | QVKLKESVGGLVQAGGSLRLSCAASGSISATGHMGWYRQAPGEERELVAAINFGSNTYYADSVKGLFTISRDNAINTVYLQKSGLKPEDTAVYYWAVDGWYVGPYYYWGQGTQVTVSS | high polyreactivity
16 | QVKLVESAGGLVQAGGSRRLSCAASGSIFRAYAMGWYRQAPGKESELVADISRSGGSTYYADSVKGRFTISRDNAKNNVYLQMNSLIPEDTAVYYCNRLPQYALPYRHNGYWGQGTQVTVSS | low polyreactivity

Row | Sequence | polyreactivity (PSR sort gate)
17 | QVKLVESGAGLVQAGGSLRLSCAASGIIFAQYTMGWYRQAPGKERELVAAINRNGGSTYYADSVKGRFTISRDNAKNTVYLQMNSLKPEDTAVYYCNAEALGFRYDYWGQGTQVTVSS | low polyreactivity
18 | QVKLVESGGCLVQEGGSLRLSCAASGSIFGHYVMRWYRQAPGKERELVAAINRGGSTYYADSVKGRFTISRDNAKNTVYLQMNSLKPEDTAVYYCAAGYPSWYYGYPYDSWGQGTQVTVSS | low polyreactivity
19 | QVKLVESGGGIVQAGGSLRLTCAASGSTVRLYAMGCYRQAPGKERELVAAISTRGSSTYYADSVKGRFTISRDNAKNTVYLQMNSLKPEDTAVFYCAADAYFIYSRYWYDYWGQGTQVTVSS | high polyreactivity
20 | QVKLVESGGGLDQAGGSLRLSCSASRSTFWHYAMGWYRQAPGKERELVASISGRGTSTYYADSVKGRFTISRDNAKNTVFFQMNSLKPEDTAVYYCAATKWFGAFDYWGQGTQVTVSS | low polyreactivity
21 | QVKLVESGGGLVQAGGSIRLSCAASGRIFTTYTMGWYRQAPGKERELVAAITRGDRTNYADSVKGRFTISRDNAKNTVYLQMNSLIPEDTAVYYCAAVGNWYYRDPLHSRFYYWGQGTQVTVSS | high polyreactivity
22 | QVKLVESGGGLVQAGGSLRLRCAASGSIFRFYVMGWYRQAPGKERELVAAISSGGSTDYADSVKGRFTISRDNAKNTVYLQMYSLKPEDTAVYYCGARVRTVRNTYYSWGQGTQVTVSS | high polyreactivity
23 | QVKLVESGGGLVQAGGSLRLSCAASGFIIGGYGMGWYRQAPGKERELVAVITASGGSTYYADSVKWLFTISRDNAKNTVYLQMNSLKPEDTGVYYCAARVGRYGYSQYYYWGQGTQVTVSS | high polyreactivity
24 | QVKLVESGGGLVQAGGSLRLSCAASGFTFTQYGLGWNRQAPGKEREFVATIRFSGDNTYYADSVKGRFTISRDNAKNTVYLQMNSLKPEDTAVYYCNADNRAFFVYPVSKRYDSWGQGTQVTVSS | low polyreactivity
25 | QVKLVESGGGLVQAGGSLRLSCAASGLIFDTYAMGWYRQAHGKERELVADITLSGGSTYYADSLKGRFTISRDTAKNTVYLQMNSLKPVDTAVYYCAADSVSLFYWDQRYPDEYDYWGQGTQVTVSS | low polyreactivity
26 | QVKLVESGGGLVQAGGSLRLSCAASGNTLYFNAMGWYRQAPGKERELVADISWGGGSTDYADSVKGRFTISRDNAKNTVYLQMNSLKPEDTAVYYCAADILSLPEYDYWGQGTQVTVSS | low polyreactivity
27 | QVKLVESGGGLVQAGGSLRLSCAASGRIFSYNAMGGYRPEPGKESEVVAAMSDGGGRTYYADSVKGRFTISRDNAKNTVYVQMNSLKPEDTAVYYCAARYSVYYFGQRNGRYGYWGQGTQVTVSS | high polyreactivity
28 | QVKLVESGGGLVQAGGSLRLSCAASGRNFYVYGMGWYRQAPGKERELVASITYRCGSTSYADSVKGRFTISRDNAKNTVYLQMNSLKPEDTAVYYCNADTYYRSDYWGQGTQVTVSS | high polyreactivity
29 | QVKLVESGGGLVQAGGSLRLSCAASGRTVTRNTMGWYRQAPGKERELVAAISRSGGGTYYADSVKGRFTISRDNAKNTVYLQMNSLKPEDTAVYYCAAVPQNYRNFDGYNYWGQGTQVTVSS | high polyreactivity
30 | QVKLVESGGGLVQAGGSLRLSCAASGSIFSRNTMGWSRQEPGKERELVAGISSSGSRTYYADSVKGRFTISRDNAKNTVYLQMNSLKPEDTAVYYCAKAWPDHWYSRYDYWGQGTQLTVSS | low polyreactivity
31 | QVKLVESGGGLVQAGGSLRLSCAASGSIVVRYTMGWYRQAPGKERELVAAIYWGGGSTYYADSVKGRFTISRDNAKNTVYLQMNSLKAEDTAVYYCKKRYILLYDYWGQGTQVTVSS | low polyreactivity
